The values below come from patent US20220112547, “BIOCHEMICAL REACTION METHODS AND REAGENTS COMPRISING INTRINSICALLY DISORDERED REGIONS” (Biocrucible Limited, published 2022).

One series deals with T1, Gp32-HRP1 (phage vB_EcoM_NBG1).
T1 chain: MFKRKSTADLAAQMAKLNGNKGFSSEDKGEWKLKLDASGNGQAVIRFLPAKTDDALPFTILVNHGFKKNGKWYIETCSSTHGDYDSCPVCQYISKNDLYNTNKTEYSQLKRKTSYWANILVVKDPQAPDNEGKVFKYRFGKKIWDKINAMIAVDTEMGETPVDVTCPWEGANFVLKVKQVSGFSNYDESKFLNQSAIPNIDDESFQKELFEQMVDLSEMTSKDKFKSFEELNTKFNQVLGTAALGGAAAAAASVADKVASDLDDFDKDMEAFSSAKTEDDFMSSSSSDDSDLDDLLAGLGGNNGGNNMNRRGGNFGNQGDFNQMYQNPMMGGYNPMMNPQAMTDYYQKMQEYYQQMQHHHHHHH
As to the kind of experiment: oligo enriched in phase-separated particles; MgOAc, RPA mix, no crowding agent. Conditions: tags: C-terminal HRP1 IDR (S. cerevisiae Hrp1) and 7xHis; label: FAM. The protocol: (§1) Reactions were set up according to the following protocol. A reaction mixture was created with the following components: 25 mM Tris HCl pH 8.3, 7.5 mM KOAc, 1 mM DTT, 2.5 mM ATP, 20 mM phosphocreatine, 1 μM creatine kinase, 1 mM dNTPs, 0.2 μM forward primer, 0.2 μM reverse primer, 0.516 μM probe, 22.6 μM Gp32-HRP fusion, 8.4 μM UvsX, 15.3 μM UvsY, 0.135 μM S. aureus DNA polymerase (large subunit), and 0.27 μM Exonuclease III. Gp32, UvsX, UvsY, polymerase and Exonuclease III were prepared as a premix before being added in one step to the mixture of primer, buffer, nucleotides and creatine kinase. The total volume was 44 Once combined, 6 μl of 280 mM MgOAc was added to the mixture to achieve a final concentration of 33 mM. 10 μl of the reaction mix was then transferred to a C-Chip haemocytometer slide which was placed on a heated stage set to 39° C. before being observed under the microscope where images were taken under bright field light conditions and fluorescence conditions.

For another series, the target named is T2, Gp32-HIS2 (phage vB_EcoM_NBG1).
T2 chain: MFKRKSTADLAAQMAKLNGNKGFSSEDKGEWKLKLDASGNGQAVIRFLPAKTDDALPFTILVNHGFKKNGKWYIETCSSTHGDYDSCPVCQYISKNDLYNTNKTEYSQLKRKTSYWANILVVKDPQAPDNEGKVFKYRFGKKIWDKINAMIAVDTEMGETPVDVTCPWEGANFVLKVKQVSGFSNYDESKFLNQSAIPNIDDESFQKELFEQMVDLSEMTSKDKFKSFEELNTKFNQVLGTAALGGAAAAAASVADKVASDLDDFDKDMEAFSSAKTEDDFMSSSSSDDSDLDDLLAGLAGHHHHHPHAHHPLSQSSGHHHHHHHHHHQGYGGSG
Described as above. The conditions noted are these: tags: C-terminal HIS2 IDR (human OTX1); label: FAM. The method, then: as §1, with “Gp32-HIS2” for “Gp32-HRP”, “Gp32-His2,” for “Gp32,”

Consider CCGCAATGGTGCACTCTCAGTACAATCTGCTCTGATG (ssDNA) [FAM oligo probe], for which the binding result with Gp32-HRP1 and with Gp32-HIS2 was “binds” in each case.
